Laboratory results: US20230257791A1

Molecular target: recombinant gp140 from the clade C strain 92BR025 (HIV antigen), Sino Biological, Inc. (HIV, clade C strain 92BR025)
Assay: SPR, Biacore T200; gp140 immobilized, GRFT as analyte at 12.5-400 nM; heterogeneous ligand model; mean ± SD of replicates

Chain of recombinant gp140 from the clade C strain 92BR025 (HIV antigen), Sino Biological, Inc. (HIV, clade C strain 92BR025) (O12164 32-677): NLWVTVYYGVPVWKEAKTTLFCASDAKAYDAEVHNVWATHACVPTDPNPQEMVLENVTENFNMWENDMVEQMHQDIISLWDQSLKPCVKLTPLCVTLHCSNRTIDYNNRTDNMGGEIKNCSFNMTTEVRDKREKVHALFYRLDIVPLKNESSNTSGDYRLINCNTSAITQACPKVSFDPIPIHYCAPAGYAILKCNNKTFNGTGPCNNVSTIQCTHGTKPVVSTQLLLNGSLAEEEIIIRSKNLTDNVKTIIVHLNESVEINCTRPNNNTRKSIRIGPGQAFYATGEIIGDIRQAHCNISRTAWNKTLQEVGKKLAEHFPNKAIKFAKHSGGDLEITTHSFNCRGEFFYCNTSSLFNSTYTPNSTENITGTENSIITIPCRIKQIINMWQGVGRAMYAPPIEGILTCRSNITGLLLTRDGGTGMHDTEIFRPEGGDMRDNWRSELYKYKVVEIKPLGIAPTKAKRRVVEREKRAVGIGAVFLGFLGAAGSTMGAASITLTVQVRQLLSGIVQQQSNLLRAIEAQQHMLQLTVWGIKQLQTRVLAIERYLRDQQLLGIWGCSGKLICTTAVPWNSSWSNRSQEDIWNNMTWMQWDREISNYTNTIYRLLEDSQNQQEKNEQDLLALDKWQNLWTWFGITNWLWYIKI

## precipitation-purified Griffithsin (GRFT), recombinant, expressed in E. coli strain DLF_0025 from plasmid pHC-Kan-phoAp-GRFT (from UniProt P84801 1-121)
  Kd: 4.4 nM
